This experiment deals with SARS-CoV-2 RBD construct consisting of residues Pro330-Gly526 fused to Venus YFP (RBD-vYFP) (SARS-CoV-2, UniProt P0DTC2).

B1: Sb#26 (VHH)
VHH: QVQLVESGGGLVQAGGSLRLSCAASGFPVNTWWMHWYRQAPGKEREWVAAITSWGFRTYYADSVKGRFTISRDNAKNTVYLQMNSLKPEDTAVYYCNVKDKGMAVQWYDYWGQGTQVTVS
On to B1, for which the binding result is reported as “binds”.

B2: Sb#30 (VHH)
VHH: QVQLVESGGGLVQAGGSLRLSCAASGFPVTMAWMWWYRQAPGKEREWVAAIRSEGVRTYYADSVKGRFTISRDNAKNTVYLQMNSLKPEDTAVYYCNVKDYGQAHAYYDYWGQGTQVTVS
On to B2, for which the binding result is given as “binds”.

B3: Sb#29 (VHH)
VHH: QVQLVESGGGLVQAGGSLRLSCAASGFPVEHEMAWYRQAPGKEREWVAAIRSMGRKTLYADSVKGRFTISRDNAKNTVYLQMNSLKPEDTAVYYCNVKDFGYTWHEYDYWGQGTQVTVS
On to B3, for which the binding result is given as “binds”.

B4: Sb#5 (VHH)
VHH: QVQLVESGGGLVQAGGSLRLSCAASGFPVFSGHMHWYRQAPGKEREWVAAILSNGDSTHYADSVKGRFTISRDNAKNTVYLQMNSLKPEDTAVYYCRVHVGAHYFGQGTQVTVS
For B4, the binding result is given as “binds”.

B5: Sb#10 (VHH)
VHH: QVQLVESGGGLVQAGGSLRLSCAASGFPVQSHYMRWYRQAPGKEREWVAAIESTGHHTAYADSVKGRFTISRDNAKNTVYLQMNSLKPEDTAVYYCTVYVGYEYHGQGTQVTVS
With B5, the binding result was “binds”.

B6: Sb#6 (VHH)
VHH: QVQLVESGGGLVQAGGSLRLSCAASGFPVEQGRMYWYRQAPGKEREWVAAIISHGTVTVYADSVKGRFTISRDNAKNTVYLQMNSLKPEDTAVYYCYVYVGAQYWGQGTQVTVS
Consider B6, for which the binding result was “binds”.

B7: Sb#12 (VHH)
VHH: QVQLVESGGGLVQAGGSLRLSCAASGFPVKASRMYWYRQAPGKEREWVAAIQSFGEVTWYADSVKGRFTISRDNAKNTVYLQMNSLKPEDTAVYYCYVWVGQEYWGQGTQVTVS
Regarding B7, the binding result is reported as “binds”.

B8: Sb#28 (VHH)
VHH: QVQLVESGGGLVQAGGSLRLSCAASGFPVYHSTMFWYRQAPGKEREWVAAIYSSGQHTYYADSVKGRFTISRDNAKNTVYLQMNSLKPEDTAVYYCNVKDSGQWRQEYDYWGQGTQVTVS
As for B8, the binding result is given as “binds”.

B9: Sb#2 (VHH)
VHH: QVQLVESGGGLVQAGGSLRLSCATSGFPVYQANMHWYRQAPGKEREWVAAIQSYGDGTHYADSVKGRFTISRDNAKNTVYLQMNSLKPEDTAVYYCRAVYVGMHYFGQGTQVTVS
Regarding B9, the binding result was “binds”.

B10: Sb#21 (VHH)
VHH: QVQLVESGGGLVQAGGSLRLSCAASGFPVKHHWMFWYRQAPGKEREWVAAIKSYGYGTEYADSVKGRFTISRDNAKNTVYLQMNSLKPEDTAVYYCFVGVGTHYAGQGTQVTVS
Take B10: the binding result is given as “binds”.

B11: Sb#13 (VHH)
VHH: QVQLVESGGGLVQAGGSLRLSCAASGFPVYASNMHWYRQAPGKEREWVAAIESQGYMTAYADSVKGRFTISRDNAKNTVYLQMNSLKPEDTAVYYCWVIVGEYYVGQGTQVTVS
On to B11, for which the binding result is on record as “binds”.

B12: Sb#1 (VHH)
VHH: QVQLVESGGGLVQAGGSLRLSCAASGFPVRKANMHWYRQAPGKEREWVAAIMSKGEQTVYADSVEGRFTISRDNAKNTVYLQMNSLKPEDTAVYYCRVFVGWHYFGQGTQVTVS
Consider B12, for which the binding result is reported as “binds”.

B13: Sb#8 (VHH)
VHH: QVQLVESGGGLVQAGGSLRLSCAASGFPVNAGNMHWYRQAPGKEREWVAAIQSYGRTTYYADSVKGRFTISRDNAKNTVYLQMNSLKPEDTAVYYCRVFVGMHYFGQGTQVTVS
B13: the binding result is reported as “binds”.

B14: Sb#11 (VHH)
VHH: QVQLVESGGGLVQAGGSLRLSCAASGFPVETENMHWYRQAPGKEREWVAAIYSHGMWTAYADSVKGRFTISRDNTKNTVYLQMNSLKPEDTAVYYCEVEVGKWYFGQGTQVTVS
Turning to B14, the binding result is reported as “binds”.

B15: Sb#27 (VHH)
VHH: QVQLVESGGGLVQAGGSLRLSCAASGFPVYNTWMEWYRQAPGKEREWVAAITSHGYKTYYADSVKGRFTISRDNAKNTVYLQMNSLKPEDTAVYYCNVKDEGDMFTAYDYWGQGTQVTVS
As to B15, the binding result was “binds”.

B16: Sb#9 (VHH)
VHH: QVQLVESGGGLVQAGGSLRLSCAASGFPVSSSTMTWYRQAPGKEREWVAAINSYGWETHYADSVKGRFTISRDNAKNTVYLQMNSLKPEDTAVYYCYVYVGGSYIGQGTQVTVS
For B16, the binding result is “binds”.

B17: Sb#19 (VHH)
VHH: QVQLVESGGGLVQAGGSLRLSCAASGFPVNSHEMTWYRQAPGKEREWVAAIQSTGTVTEYADSVKGRFTISRDNAKNTVYLQMNSLKPEDTAVYYCYVYVGSSYLGQGTQVTVS
For the molecule B17, the binding result is “binds”.

B18: Sb#20 (VHH)
VHH: QVQLVESGGGLVQAGGSLRLSCAASGFPVEQREMEWYRQAPGKEREWVAAIDSNGNYTFYADSVKGRFTISRDNAKNTVYLQMNSLKPEDTAVYYCYVYVGKSYIGQGTQVTVS
Take B18: the binding result is given as “binds”.

B19: Sb#23 (VHH)
VHH: QVQLVESGGGLVQAGGSLRLSCAASGFPVYAAEMEWYRQAPGKEREWVAAISSQGTITYYADSVKGRFTISRDNAKNTVYLQMNSLKPEDTAVYYCFVYVGKSYIGQGTQVSVS
B19: the binding result is on record as “binds”.

B20: Sb#31 (VHH)
VHH: QVQLVESGGGLVQAGGSLRLSCAASGFPVNSHFMEWYRQAPGKEREWVAAIQHSSGFHTYYADSVKGRFTISRDNAKNTVYLQMNSLKPEDTAVYYCNVKDTGTTEDYDYWGQGTQVTVS
On to B20, for which the binding result is “binds”.

B21: Sb#17 (VHH)
VHH: QVQLVESGGGLVQAGGSLRLSCAASGFPVAGRNMWWYRQAPGKEREWVAAIYSSGTYTEYADSVKGRFTISRDNAKNTVYLQMNSLKPEDTAVYYCHVWVGSLYKGQGTQVTVS
Consider B21, for which the binding result is “binds”.

B22: Sb#25 (VHH)
VHH: QVQLVESGGGLVQAGGSLRLSCAASGFPVHAWEMAWYRQAPGKEREWVAAIRSFGSSTHYADSVKGRFTISRDNAKNTVYLQMNSLKPEDTAVYYCNVKDFGTHHYAYDYWGQGTQVTVS
For B22, the binding result is recorded as “binds”.

B23: Sb#3 (VHH)
VHH: QVQLVESGGGLVQAGGSLRLSCAASGFPVNYKTMWWYRQAPGKEREWVAAIWSYGHTTHYADSVKGRFTISRDNAKNTVYLQMNSLKPEDTAVYYCVVWVGHNYEGQGTQVTVS
Take B23: the binding result was “binds”.

These data come from article doi:10.1101/2020.04.16.045419 (bioRxiv, 2020).
